Here are results for six molecules from patent US20240190936A1 (Eli Lilly, published 2024).

As usually defined, the Ki is a dissociation constant, usually derived from enzyme kinetics or from competition with a known ligand. The low end stands for tighter binding, the high end for weaker binding.

B1: Example 5 (peptide)
peptide: Y[Aib]QGT[αMePhe(2-F)]TSDYSILLDKK([AEEA-γGlu-C20 diacid])AQQAFIEYLLEGGPSSGAPPPS-NH2
modifications: N-terminus assumed
SMILES: CC[C@H](C)[C@H](NC(=O)[C@H](Cc1ccccc1)NC(=O)[C@H](C)NC(=O)[C@H](CCC(N)=O)NC(=O)[C@H](CCC(N)=O)NC(=O)[C@H](C)NC(=O)[C@H](CCCCNC(=O)COCCOCCNC(=O)CC[C@H](NC(=O)CCCCCCCCCCCCCCCCCCC(=O)O)C(=O)O)NC(=O)[C@H](CCCCN)NC(=O)[C@H](CC(=O)O)NC(=O)[C@H](CC(C)C)NC(=O)[C@H](CC(C)C)NC(=O)[C@@H](NC(=O)[C@H](CO)NC(=O)[C@H](Cc1ccc(O)cc1)NC(=O)[C@H](CC(=O)O)NC(=O)[C@H](CO)NC(=O)[C@@H](NC(=O)[C@](C)(Cc1ccccc1F)NC(=O)[C@@H](NC(=O)CNC(=O)[C@H](CCC(N)=O)NC(=O)C(C)(C)NC(=O)[C@@H](N)Cc1ccc(O)cc1)[C@@H](C)O)[C@@H](C)O)[C@@H](C)CC)C(=O)N[C@@H](CCC(=O)O)C(=O)N[C@@H](Cc1ccc(O)cc1)C(=O)N[C@@H](CC(C)C)C(=O)N[C@@H](CC(C)C)C(=O)N[C@@H](CCC(=O)O)C(=O)NCC(=O)NCC(=O)N1CCC[C@H]1C(=O)N[C@@H](CO)C(=O)N[C@@H](CO)C(=O)NCC(=O)N[C@@H](C)C(=O)N1CCC[C@H]1C(=O)N1CCC[C@H]1C(=O)N1CCC[C@H]1C(=O)N[C@@H](CO)C(N)=O
notes: Synthetic acylated peptide
B2: Example 6 (peptide)
peptide: Y[Aib]QGT[αMePhe(2-F)]TSDYSILLDKK([AEEA-γGlu-C20 diacid])AQHAFIEYLLEGGPSSGAPPPS-NH2
modifications: N-terminus assumed
SMILES: CC[C@H](C)[C@H](NC(=O)[C@H](Cc1ccccc1)NC(=O)[C@H](C)NC(=O)[C@H](Cc1c[nH]cn1)NC(=O)[C@H](CCC(N)=O)NC(=O)[C@H](C)NC(=O)[C@H](CCCCNC(=O)COCCOCCNC(=O)CC[C@H](NC(=O)CCCCCCCCCCCCCCCCCCC(=O)O)C(=O)O)NC(=O)[C@H](CCCCN)NC(=O)[C@H](CC(=O)O)NC(=O)[C@H](CC(C)C)NC(=O)[C@H](CC(C)C)NC(=O)[C@@H](NC(=O)[C@H](CO)NC(=O)[C@H](Cc1ccc(O)cc1)NC(=O)[C@H](CC(=O)O)NC(=O)[C@H](CO)NC(=O)[C@@H](NC(=O)[C@](C)(Cc1ccccc1F)NC(=O)[C@@H](NC(=O)CNC(=O)[C@H](CCC(N)=O)NC(=O)C(C)(C)NC(=O)[C@@H](N)Cc1ccc(O)cc1)[C@@H](C)O)[C@@H](C)O)[C@@H](C)CC)C(=O)N[C@@H](CCC(=O)O)C(=O)N[C@@H](Cc1ccc(O)cc1)C(=O)N[C@@H](CC(C)C)C(=O)N[C@@H](CC(C)C)C(=O)N[C@@H](CCC(=O)O)C(=O)NCC(=O)NCC(=O)N1CCC[C@H]1C(=O)N[C@@H](CO)C(=O)N[C@@H](CO)C(=O)NCC(=O)N[C@@H](C)C(=O)N1CCC[C@H]1C(=O)N1CCC[C@H]1C(=O)N1CCC[C@H]1C(=O)N[C@@H](CO)C(N)=O
notes: Synthetic acylated peptide
B3: Example 1 (peptide)
peptide: YXQGTXTSDYSILLDKKAQXAFIEYLLEGGPSSGAPPPS
modifications: Aib at 2; αMeF at 6; K17 conjugated at the epsilon-amino group with (2-[2-(2-amino-ethoxy)-ethoxy]-acetyl)2-(γGlu)-CO-(CH2)18-CO2H; Aib at 20; C-terminal amide
notes: Synthetic acylated peptide
B4: Example 4 (peptide)
peptide: B3 peptide
modifications: Aib at 2; αMeF(2F) at 6; K17 conjugated at the epsilon-amino group with (2-[2-(2-amino-ethoxy)-ethoxy]-acetyl)-(γGlu)-CO-(CH2)18-CO2H; Aib at 20; C-terminal amide
notes: Synthetic acylated peptide
B5: Example 2 (peptide)
peptide: B3 peptide with L13X
modifications: Aib at 2; αMeF at 6; αMeL at 13; K17 conjugated at the epsilon-amino group with (2-[2-(2-amino-ethoxy)-ethoxy]-acetyl)2-(γGlu)-CO-(CH2)18-CO2H; Aib at 20; C-terminal amide
notes: Synthetic acylated peptide
B6: Example 3 (peptide)
peptide: B3 peptide with Q3H
modifications: Aib at 2; αMeF(2F) at 6; K17 conjugated at the epsilon-amino group with (2-[2-(2-amino-ethoxy)-ethoxy]-acetyl)2-(γGlu)-CO-(CH2)18-CO2H; Aib at 20; C-terminal amide
notes: Synthetic acylated peptide

Numbering of substitutions follows the chain as printed. *1 amine or outer side, *2 acyl side, *3 side chain or, on linkers, in order; H or OH if unused. Where no end group is shown, it is not given here. Side-chain parts run from the residue outwards. [ ]: non-standard residue; d: D form. The star is where a group is joined. C20 diacid = O=C(O)CCCCCCCCCCCCCCCCCCC(=O)*; αMePhe(2-F) = C[C@](N)(Cc1ccccc1F)C(=O)O; γGlu = O=C(O)[C@H](CCC(=O)[*:2])N[*:1]; AEEA = NCCOCCOCC(=O)O; Aib = CC(C)(N)C(=O)O

The target in the first test is T1, human glucagon receptor (human, UniProt P47871 26-477).
T1 construct: whole, on cells; cAMP assays used the whole cells; also called GcgR; hGcgR
T1 sequence (P47871 26-477): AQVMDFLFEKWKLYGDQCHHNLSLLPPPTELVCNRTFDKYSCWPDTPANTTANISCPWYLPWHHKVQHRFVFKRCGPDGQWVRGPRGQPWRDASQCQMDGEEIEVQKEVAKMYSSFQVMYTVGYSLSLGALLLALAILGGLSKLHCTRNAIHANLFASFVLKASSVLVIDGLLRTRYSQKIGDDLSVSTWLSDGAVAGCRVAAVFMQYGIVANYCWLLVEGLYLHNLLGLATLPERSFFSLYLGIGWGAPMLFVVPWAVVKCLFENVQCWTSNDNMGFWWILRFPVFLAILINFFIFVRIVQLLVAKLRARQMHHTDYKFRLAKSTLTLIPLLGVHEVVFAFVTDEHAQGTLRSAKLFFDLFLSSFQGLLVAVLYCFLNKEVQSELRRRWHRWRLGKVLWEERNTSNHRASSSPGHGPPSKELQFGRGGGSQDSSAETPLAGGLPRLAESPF
As to the kind of experiment: radioligand competition SPA, membranes of HEK293 cells overexpressing human GcgR. As to the method:
(§1) Radioligand competition binding assays are run to determine the equilibrium dissociation constant for Example compounds and comparator molecules.
(§2) The assays are performed in the presence of bacitracin as a non-specific blocking agent to prevent acylated moieties of test analogs from binding to protein components used in standard assay buffers (e.g., albumin).
(§3) Competition curves are plotted as the percent specific inhibition (y-axis) versus log concentration of compound (x-axis) and analyzed using a four parameter nonlinear regression fit with variable slope (ABase or Genedata).
Background: In a radioligand displacement assay an active substance lowers the binding of a labelled ligand.
Turning to B1, affinity was put at a Ki of 0.419 nM.
Consider B2, for which the inhibition constant Ki is 0.382 nM.
In turn, B3 showed a Ki of 0.955 nM.
Consider B4, for which the Ki came out at 0.637 nM.
With B5, the affinity, expressed as Ki, was 1.49 nM.
In turn, B6 registered a Ki of 0.469 nM.

In a further test the target is T2, human GIP receptor (human, UniProt P48546 22-466).
T2 construct: whole, on cells; cAMP assays used the whole cells; also called hGIPR
T2 sequence (looked up): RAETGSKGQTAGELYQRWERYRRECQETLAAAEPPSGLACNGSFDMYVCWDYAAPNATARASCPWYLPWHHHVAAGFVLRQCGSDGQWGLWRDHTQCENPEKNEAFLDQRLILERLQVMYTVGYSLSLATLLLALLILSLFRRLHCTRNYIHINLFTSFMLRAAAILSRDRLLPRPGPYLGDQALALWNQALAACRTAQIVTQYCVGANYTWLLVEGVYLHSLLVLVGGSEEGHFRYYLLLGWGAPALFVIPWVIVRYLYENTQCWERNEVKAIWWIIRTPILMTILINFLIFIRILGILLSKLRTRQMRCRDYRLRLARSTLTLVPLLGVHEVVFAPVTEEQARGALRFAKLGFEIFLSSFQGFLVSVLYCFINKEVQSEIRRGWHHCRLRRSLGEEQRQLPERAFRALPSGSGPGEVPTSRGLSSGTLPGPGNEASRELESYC
Put plainly: radioligand competition SPA, membranes of HEK293 cells overexpressing human GIPR. As to the method:
as §1, §2, §3
Molecule B1 displayed a Ki of 0.0347 nM.
Take B2: the inhibition constant (Ki) was determined as 0.0388 nM.
Regarding B3, the inhibition constant Ki was 0.0278 nM.
For B4, the affinity corresponds to a Ki of 0.0832 nM.
As for B5, the Ki was found to be 0.0413 nM.
In turn, B6 came in with an inhibition constant (Ki) of 0.0684 nM.

A further test has as its target T1, human glucagon receptor. Put plainly: cell-based or functional assay.
With B1, the “cAMP EC50, in the presence of 0.1% casein” value (“cAMP EC50 … of 0.1% casein” for short) was found to be 0.0343 nM.
Turning to B2, the “cAMP EC50 … of 0.1% casein” value is 0.0293 nM.
In the case of B3, the “cAMP EC50 … of 0.1% casein” value was 0.158 nM.
With B4, the “cAMP EC50 … of 0.1% casein” value stood at 0.0296 nM.
On to B5, for which the “cAMP EC50 … of 0.1% casein” value is 0.096 nM.
Still for that read-out and setting: under B6 stands 0.0301 nM.

Another test has as its target T3, human GLP-1 receptor (human, UniProt P43220 24-463). As to the kind of experiment: cell-based or functional assay.
As to B1, the “cAMP EC50 … of 0.1% casein” value came out at 0.103 nM.
As for B2, the “cAMP EC50 … of 0.1% casein” value was determined as 0.115 nM.
The same measure, in the same setting: under B3 stands 0.112 nM; under B4, 0.145 nM.
Consider B5, for which the “cAMP EC50 … of 0.1% casein” value is 0.106 nM.
Still for that read-out and setting: under B6 stands 0.104 nM.

In a further test the target is T2, human GIP receptor. Put plainly: cell-based or functional assay.
B1: the “cAMP EC50 … of 0.1% casein” value was found to be 0.0306 nM.
With B2, the “cAMP EC50 … of 0.1% casein” value came out at 0.0349 nM.
On to B3, for which the “cAMP EC50 … of 0.1% casein” value was 0.0226 nM.
For B4, the “cAMP EC50 … of 0.1% casein” value came out at 0.0321 nM.
B5: the “cAMP EC50 … of 0.1% casein” value was determined as 0.0329 nM.
Take B6: the “cAMP EC50 … of 0.1% casein” value came to 0.0215 nM.

The target in another test is T1, human glucagon receptor. As to the kind of experiment: cell-based or functional assay. This is another data set of the same source.
Regarding B1, the “cAMP EC50, in the presence of FBS and BSA” value (“cAMP EC50 … of FBS and BSA” for short) is 1.87 nM.
With B2, the “cAMP EC50 … of FBS and BSA” value is 1.76 nM.
Still for that read-out and setting: under B3 stands 6.33 nM; under B4, 1.78 nM; under B5, 4.75 nM.
With B6, the “cAMP EC50 … of FBS and BSA” value stood at 3.46 nM.

For another test, the target named is T3, human GLP-1 receptor. As to the kind of experiment: cell-based or functional assay. This is another data set of the same source.
Turning to B1, the “cAMP EC50 … of FBS and BSA” value came out at 13 nM.
On to B2, for which the “cAMP EC50 … of FBS and BSA” value came to 8.94 nM.
On the same count and under the same terms, under B3 stands 12.6 nM; under B4, 10.6 nM.
On the same count and under the same terms, under B5 stands 11.6 nM; under B6, 13.1 nM.

A further test has as its target T2, human GIP receptor. As to the kind of experiment: cell-based or functional assay. This is another data set of the same source.
Regarding B1, the “cAMP EC50 … of FBS and BSA” value was 1.91 nM.
Same read-out and setting: under B2 stands 1.41 nM; under B3, 1.82 nM.
For the molecule B4, the “cAMP EC50 … of FBS and BSA” value was 1.37 nM.
For the molecule B5, the “cAMP EC50 … of FBS and BSA” value was found to be 1.34 nM.
Take B6: the “cAMP EC50 … of FBS and BSA” value came out at 1.37 nM.

A further test addresses T3, human GLP-1 receptor. As to the kind of experiment: radioligand competition SPA, membranes of HEK293 cells overexpressing human GLP-1R. Here is the method: as §1, §2, §3
For the molecule B1, the Ki is 1.17 nM.
On to B2, for which the affinity corresponds to a Ki of 0.822 nM.
Molecule B3 had an inhibition constant (Ki) of 2.51 nM.
As to B4, the Ki was 1.21 nM.
Molecule B5 returned a Ki of 2.41 nM.
B6 returned a Ki of 1.66 nM.
